Experimental findings from publication PMC12327846 are described below.

The target of this data set is T1, DtxR (Corynebacterium glutamicum) (UniProt Q8NP95).
T1 sequence: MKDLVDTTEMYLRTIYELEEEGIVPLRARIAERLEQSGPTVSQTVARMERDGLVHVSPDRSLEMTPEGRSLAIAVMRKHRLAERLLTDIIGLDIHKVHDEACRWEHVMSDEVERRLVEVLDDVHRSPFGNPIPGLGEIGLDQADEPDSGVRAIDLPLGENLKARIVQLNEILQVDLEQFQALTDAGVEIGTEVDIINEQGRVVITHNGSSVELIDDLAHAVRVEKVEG
Kind of data set: EMSA. The settings on record: EMSA: 31 nM DNA, DtxR at 0/50/200-fold (A) or 0/300/400-fold (B) excess; 50 mM Tris-HCl pH 7.5, 5 mM MgCl2 (rest of buffer not in material); 30 min, room …. In general terms: Mobility shift assays separate free from complexed probe on a gel.
On to “GTGGCGCTTTGCCTGTGTTGCTTAGGCGGCGTTGAAAATGAACTACGAATGAAAAGTTCGGGAATTGTCTAATCCGTACTAAGCTGTCTACACAATGTCTACTTCAGTTACTTCACCAGC (double strand) [metH promoter 121 bp]”, for which the binding entry is reported as “binds”.
“TAGTCGTATCAAAAAGTGCTCTGATCTTAACTTTGCCCTACCTAAATACATGACCCCACCACGACGGCCAGTACTAACGACAGAATCCACTAGCGAACCCATTTATTAACAAACATTGCAA (double strand) [NCgl2776 promoter 121 bp (primers named NCgl2766)]”: the binding result is “binds”.
As for “TTTGACGTGCTTTTTTAGCACGCCATTAAGCTAAAAATAAGGTTAGGGTGCGTTATGTTTTCAGGTATCAAAAGGTGCTAATGCCTTTATTGTGTTTCGCATTGTCATTTACCACATGAAG (double strand) [cepA promoter 121 bp]”, the binding entry is given as “binds”.
As to “AACCTGGGGGTTATATAAAAAACTTCACAAAAAGGTTGCATCCGCATCAACCGAAAGATAGTGTGTGTGAGGCAAGCCTAAGTAAACTTCTTCAAGGTTCGGGCTGGTTCCTTGAAGACGG (double strand) [xerC promoter 121 bp]”, the binding entry is given as “binds”.
As to “GAGTAGTAGCAGTGGGTATTTGCAAGCCTTTGACAAGTTACTAAACCGTGCTACCGAAACCCCTCGTGTTTAAATCTAGAAGTTTAAAGGGTGAAAACAGTCCATTACTTAAGCACCAATC (double strand) [NCgl0177 promoter 121 bp]”, the binding result is given as “no binding”.
With “GGACCTAAGCGTGTAAGATGGAAACGTCTGTATCGGATAAGTAGCGAGGAGTGTTCGTTAAAAGTGGCAAACACTGAACACAATTATGACGCTTCATCGATCACCATCCTTGAAGGTCTTG (double strand) [gyrB promoter 121 bp]”, the binding entry is on record as “no binding”.
